{"source": "the DeepSol protein solubility set", "data": [{"assay": "soluble on expression in E. coli; label from the status in PepcDB or PDB records", "values": [{"sequence": "MAHHHHHHMGGCVVSLMECKARSNEVPWELSEDVKSYGPLSVAVAGTQTPNSSAVYVNGKQSTLAAQQECGKQFYYGPNQPQRFAKLCQENLDSVALAYRRIEKMEKEQVAGASRPMDVAYFSEQCNLTYRELWHAVTGFSRGLAELGLEKRVNVTIYEETRWEWLASIYGIWMQDMVAATVYANLGEGALFHALRETECKAILCNGKSVPNLLRGVGSGAFPACTLIYLDNLPVAGCAELHGCRVVSWKDVVALGHGAGAHHGAAPPEDNESVALIMYTSGTTGDPKGVMHTHGSIVAGILTMDDWLYSVIKHRPDDVYLSYLPMAHIMEFGVVNILLARRAHVAFGTPRTLTDATARPHGDFTHFRPTLLIGVPRIFDTLKKAVEAKLPPVGTLKRQVFDHAYQSRLAALKEGKDTPFWNEKVFSQPRAALGGRVRAFLSGGGPLSETTQEFVNVVFGCIVNGWGLTETVCIGAIQRLGDLTPSAVGQVLCSEQLKLRDIDEYKHTDTPYPRGEICLRGPFLFKGYYKQPELTREVLDEDGWFHTGDVGSIDCEGRVSIVGRIKALAKNCLGEYIALEVLEAVYSSHPLVLHNCVCVLVDPCKNYICALVLTDESHVMRFAKANGIEGEYPSLLEKKELLEKAAASMAETARAARRRDFEVVRRVSLIDDEWSPEKGQLTAALKLRRGAIAKQYEKQITCLFAE", "soluble on expression in E. coli": "not soluble"}, {"sequence": "MAHHHHHHMGGVRGGRNKSHKLPVKFMAAAKQELVNSRLTLQEELLHSAFDDHSAYRMRITGLKQQNLDLSFTVSELEEQVRDLYTYIHEKRFARQVDEQGNEIAVMTPRPRGVPLALQTELGIDLRHSTANILSELSTLSINMKHQLNSALLRARQLHTLSAWLDEGNETSVSGGGVGGMLERVSEAAAIPVFPVSAWPSIPHFLRTFIAPDVPNYFWTETQAACILYNFFKRYKAIRRRARFVRDNKMLAPRVYQLFEHREVLLTRLDAGKEDVAAAEENTPFGYVVTQFAREVLANLSPQNTQPHLPLVLPGTVALRFPQTSSTPSQSKSLQSGERRG", "soluble on expression in E. coli": "not soluble"}, {"sequence": "MAHHHHHHMGGVTLHKVNTCPWWQRKNYEIEKSFFLRSAPPPLRKKRNQLRQYNHAENNSYTNIYTIKNPLKCKVVDKVSLVRQNALHEVYNVEIDHGGMFKYLEGHSCGVIPYYEDLIQADDKNNSQEGRKKRGNKFARLYSISSTNAENLSFAIRIHSYQEEENGCMQHKYGYCSGYIKELKKNDNIYITGAHGCFLLPDNVSEKNTNLILIATGTGISPYISFLKKIWGYQPGIHQQKKTYNGQVYLYYGVYYEDSILYLPELKYFQNMYPNNFHVEYVFSSIKNSDGTSHHVQDEIYKKRENFLRLFNELNCELYICGHKSIRAKIMDILKGENPVLDSEKKKRVHVEVY", "soluble on expression in E. coli": "not soluble"}, {"sequence": "MAHHHHHHMGLMLPKPILSKVVDRAGNSFVNAACASQNGFRNSMEDAHMLVATDDADVAYFGIFDGHSNAECSAYVARELPQRLKKLPESITAEMLEKVCIEVDEAYMKTSTEGGTTGTFCVIRKDLTVTIANVGDSRILVCRGGKLIFATEDHKPYIPGETERIVACGGSVVSNRVDGDLAVSRAFGDASFKVKGTKDYRMQKVIAVPDVSVLQCEPNDFIILACDGVFEGNFSNEDVCQFVWEQQQNCWDDLAVVACRVCDEAIRCGSKDNISCLVVQLAEGASRVKAFGATSFVPGPPFPRNQQPCRAAYAQMAELGHTTTAAALQTRYQLLQAFSKNKLNSQPPVMRTAFEMSDEVDVETEWSFFGKGPAPGNEKNFFEALANTGNSS", "soluble on expression in E. coli": "soluble"}, {"sequence": "MAHHHHHHMGLVSSKHAGGGDGKPLSLDVISSRPKLEPHEVSLLQLTPHGVYATLAAHVYCAAAPETAMQVPLPDGWEVLLQCSSLHLDKEGYFAVAYVHRGSRHCIISERGTSEVLGLRAGIWMYFEQPTIQFFLAEQFSKAVRHKLKVMDKVCSGSWFVSYTGHSLGAVIAGCRAVMEGTLAVTFESPGARVFIEKTLDASSGTDEHLITYLRAPNPINTLKPQCGYVIMIPTQQVVLPSGTLFLAPSNPAAAEDDDEDERQSPRSGSGNRASRKPSKVPLSSTSSTNPSGCAGLVAASVTTAASTGTTAAATLAARSPTPPSVPASNSNNSGPGAAVASAPARWRIPSFRPQEYLRGYLFGGVGMGVPELQQYVGKVEPMIREMLEHTQQVHSIHSLRSHFQKSDEPGDEEVVLRWPSHLLQFMEFYNTTRALEDPENQDAGVKEAYLGLMRRLYYTEPRRRDCIPTKYLDPRSLLLVRMWWSMDAAQRKQWPLSLMDHKALNVIQIKDRYLCSYVMTAMQAKQYLMRLVARPEMRAMIDQWRRERNDGSTGAGSPQRSKL", "soluble on expression in E. coli": "not soluble"}, {"sequence": "MAHHHHHHMGQSKTKLQVVMCGLDNSGKTTIINQVKPAQSSSKHITATVGYNVETFEKGRVAFTVFDMGGAKKFRGLWETYYDNIDAVIFVVDSSDHLRLCVVKSEIQAMLKHEDIRRELPGGGRVPFLFFANKMDAAGAKTAAELVEILDLTTLMGDHPFVIFASNALKGTGVHEGFSWLQETASRQSGKAGTKRG", "soluble on expression in E. coli": "soluble"}, {"sequence": "MAHHHHHHMGTLEAQTQGPGSMLKSVGVILVLSSPSGCGKTTVANKLLEKQKNNIVKSVSVTTRAARKGEKEGKDYYFVDREEFLRLCSNGEIIEHAEVFGNFYGVPRKNLEDNVDKGVSTLLVIDWQGAFKFMEMMREHVVSIFIMPPSMEELRRRLCGRRADDSEVVEARLKGAAFEISHCEAYDYVIVNEDIEETADRISNILRAEQMKTCRQVGLRELLESRFPIED", "soluble on expression in E. coli": "soluble"}, {"sequence": "MAHHHHHHMGTLEAQTQGPGSMLNKRKFYINGLWDDPSTPHDLYVIDPSTEEACAVISLGSTRDADKAINAAKKAFQTWKTTSPHERLGFVEKILEIYEKRSSDMAKTISMEMGAPIDMALNAQTATGSSHIRNFIKAYKEFSFQEALIEGNEQAILHYDAIGVVGLITPWNWPMNQVTLKVIPALLAGCTMVLKPSEIAPLSAMLFAEILDEAALPSGVFNLINGDGANVGSYLSAHPDLEMISFTGSTRAGKDISKNASNTLKRVCLELGGKGANIIFADADIDALQRGVRHCFYNSGQSCNAPTRMLVEQAIYDKAIKTAKDIAEKTQVGPGHQTGNHIGPVVSKEQYDKIQDLIQSGIDEGATLVTGGTGLPMGMERGYYVRPTVFADVKPHMRIFREEIFGPVLSLLPFNTEDEAVTLANDTEYGLTNYIQSQDRSKCRRIAAQVRSGMVEVNGHELPGGSYFGGVKFSGRAREGGLWGIKEFLDTKAISYW", "soluble on expression in E. coli": "soluble"}, {"sequence": "MAHHHHHHMGTLEAQTQGPGSMVNWNALRSKAIEVSRHAYAPYSGFPVGAAALVDDGRTVTGCNVENVSYGLGLCAECAVVCALHSGGGGRLVALSCVGPDGGVLMPCGRCRQVLLEHGGPELLIDHAHGPRPLRELLPDAFGPDDLGRR", "soluble on expression in E. coli": "soluble"}, {"sequence": "MAHHHHHHMGVCLASLMVRRSRISEVPDRYIEERRRYGPVAVACAPPEDDVSSAVYRAAGITDEEHRRICKEWYEGENIVHRLEEICAERSDRRALAYRTVQKVETEKKTDSKGHTRNWEVTYLNDPTYMTYNEFWSRLIAFGKGLRELGLAEGAAVAIAEDVRWEWLASVLAGWTQGLISVTVYANLGEAALLHALKEAECPALICNGNAVKKLVPLLHKAKLNNTMVIYLDALPAGVDAEGMMLLSWTDVLQKGLQSCFSYTIPSDCNRTALIMYTSGTVAEPKGVIHTFGSLKTGAAALEDRLTELLGPKEEGETYLAYLPLAHILEFITEMIMLNRGSLLCYGSPRTLSDMSARPRGDLAEFRPMMFVGVPRIFETIRKNVESQLPPVGSVKRSIFDAAYAARLRAIEDGKDTPF", "soluble on expression in E. coli": "soluble"}, {"sequence": "MAHHHHHHMHNGVKTFHRVGFVGSKWKEVKNRGIARFIEAFAADTATALNVTPQAVHIADYAVADDIVVDFYVTHPGTDSAEVIDGKLEQFDYQRVWDLYGIPSEVDEQQRVVPCVMKCSNASRRTSPSSTCRLRMPDTNSVSQVDSFCPRCQRRLSSKQEFLQPDESSGWHPQPMHSHTSSISDAVRTALMEDSYSAIRKPSSTPPLPHLAHRYAPHQKWKGKLRSSRARIKRVVYHSCASHR", "soluble on expression in E. coli": "not soluble"}, {"sequence": "MAHHHHHHMIERTDVVTGTETQEGSTVPQEARQFLQIIATMQSESEERARIIGELRYRKLLVEEERDKNFMEREAVVAKLADARAQLLQLDVEHRELQKRQRSSESEILENSRQSQRCRTLLSTCRGDLTVHPMVPNSASELAAEATAAGTSSAAHNAYTEEAKWLKHLFITYGQLYNGTDFLQELRVSMKNLYVEVSKETHNTVQRNLSDWEATCLQSLPHLTADERTLLHFQLMLHPFV", "soluble on expression in E. coli": "not soluble"}, {"sequence": "MAHHHHHHMIPRYDGLVPAIRGPASACAVASVNATPSSTTKRTAAATTVARYVICPVETTGTENAHVNATAERERRLFAFLPSVDCAAPPRELRVSSHYFEDALVASVASSDAESGEDLDEGEESHTSTARRGNTREDGAHGSNSGSRKRRRARRREPMRLEYDGFLAPATEATKRVRLVSTPASEYSHLTCVLLQLPTAWREQDMDEGEGHGRTACVSSSSTSKPLITSMPLRRPILQLWGERNTAAAGPNDGSLCTGSSAASISAAWGSDTRLQISKKDWKTMDAAEEDLHKPTNWSDDDGGDASDEGRGKSASGADDAISARARKREREEATSIAVRSFLAGTKEALRQQGAVGAADGFAQPQPAVRSDNAAPVSARVETSAPVKAAAKRATVTVPLSSGSSGSRVRSSVATPAVPPTHALTTNSAAPLPSSGVAPPDGSASLDSLACTVVTGMLSSEARRAATLMELQKRILKQLPEFATMSQKMKSTATKQEAVAWFQTSQQALRAWLVEHGHTIDSDGTVTFGDA", "soluble on expression in E. coli": "not soluble"}, {"sequence": "MAHHHHHHMITGGSEKLLTKDSVAQYIRRVSSGLLYESAVLPIQFLIRGFRDIVPCEALASLGEQEMMSLLCGCRANDKKPLWTLAEIKSILVAEHGYQTDSPQMTMLQNILANRLTPAEQRSFLLFCTGCPRLPVGGVGALGAITVVKRSDFTMFHGSSGRNSGGSDGIGGADRKEQNPKQPGEWNSLPNETDWPLPSVNTCFRYLKLPPYPTEDLMYKKLRLSIMQGGETFQLS", "soluble on expression in E. coli": "not soluble"}, {"sequence": "MAHHHHHHMITMECITKKIKTIFQNSIQKCFPSISEDAIVTYANLKFGHYQCNNAINIYKKYGKELNYENAQKISEFIISNINETIFEEIKSSPQGFITVKLSKDYIETSLKKLFNGEKIDISININDIKESNENYGNVLVDFSSPNIAKEMHVGHLRSTIIGDSICRVFEFLKINTHRVNHVGDWGTQFGMIINYIKTHYPNFKEEMPDLSNLTSLYQESKKMYDADKEFEKSSKENAIKLQNNDEDCKFVWNKLCESSKKEFDKLYNILDIKLEYVGESFYVPMLSTVLDLLKESKLLTNIGDAICYQSENFKVPLFLQKSNGGYGYDSTDVAALYYRLTQLNCNCVIYVTDIGQLTHFETIFDLIKKTNWGDKNAKLMHVGFGFVLNEDNKKFKTRSGTTVKLINLIKEGTERAKRDLLQRIETKSEEEKSYFENVDIDQLSESLCVSAIKYFDLKQHRNSDYKFSYDNMLNVKGNTGIYIIYGYSRICSIFRKSTINVEDISKDELSLTSIYEINLGLHILKFPDIFYYILKNMLVHKLAEYMYDLTTTFTAFYENCKVLNNENEKSRLLLCSITKSLLKLCMELLGMKPIEKL", "soluble on expression in E. coli": "soluble"}, {"sequence": "MAHHHHHHMKAVSIRQVSAIIILDNNGKRIAVKYYNDQAPLKGENKLVPKNTNKDLVSNAFENTYNNLRTVEDQKLFESDITEKARKLGGDSSETEVLVLNKFTILYLLINDVSIYIVGEESDNEIILHEIMQTVQQCLDNVTNNQIGKKQLLDKLDSIYLILDEIADSGIIMETNPNVIINRLYMHESDLQEHTPLNQAISSAKENIIRSLLSGT", "soluble on expression in E. coli": "not soluble"}, {"sequence": "MAHHHHHHMKKHKVPCKKFYRQRAHCNPLSDSYIRYPINCSYVDWRVHYPHLAAHGSDAQAEPINSVEATKHITNTEVERPPDEDPPTLQLNTNKYPIDYNQGPPKCAPHAEVTILDIGCGYGGLLFELSKTFPNKLILGMEIRDKITNYVGEKIHSYRKNYPPQYKNISVVRTNAMKFLPNYIKKNQIEKLFFCFPDPHFKKQNWRRRTITIESLSLYYYLLKRDGLIYFITDVYTLFLWVRFCFSKYPGFRLLSPEECQGDICVRLIHHSSEESKRVSKNKQAMYFCVARKE", "soluble on expression in E. coli": "not soluble"}]}]}
